Experimental data from patent publication US7888291B2, “Substrates and assays for β-secretase” (Elan Pharmaceuticals, Inc., priority 2000, dated 2011).
One block for each substance: values may come before it. Non-standard residues stand in square brackets, D forms with d. No end group written: not given here. Sta = CC(C)C[C@H](N)[C@@H](O)CC(=O)O

Legend:
[1] = target: T1, Hu-Asp2 (Homo sapiens, UniProt P56817); assay: Hu-Asp2 peptide substrate cleavage assay (HPLC quantitation of cleavage products); format: biochemical
T1 construct: made in house; host or cells: High Five insect cells
T1 sequence (P56817 46-501): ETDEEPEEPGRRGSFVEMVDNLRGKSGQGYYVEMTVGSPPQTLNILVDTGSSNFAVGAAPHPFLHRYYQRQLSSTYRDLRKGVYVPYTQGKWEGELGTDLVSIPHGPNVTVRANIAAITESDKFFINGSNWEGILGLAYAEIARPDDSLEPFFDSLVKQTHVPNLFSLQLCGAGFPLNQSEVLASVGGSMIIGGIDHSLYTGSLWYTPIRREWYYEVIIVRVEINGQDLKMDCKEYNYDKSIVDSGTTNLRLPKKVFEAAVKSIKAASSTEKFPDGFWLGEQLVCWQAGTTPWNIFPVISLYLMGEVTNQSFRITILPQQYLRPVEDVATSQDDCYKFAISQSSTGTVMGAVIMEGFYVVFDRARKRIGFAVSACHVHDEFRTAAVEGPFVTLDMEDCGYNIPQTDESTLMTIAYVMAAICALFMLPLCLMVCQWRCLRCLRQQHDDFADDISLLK
Procedure: The peptides listed in Table 2 were designed, synthesized, and tested for activity as substrates for Hu-Asp2. 200 μM of each test substrate was incubated with 210 nM Hu-Asp2 enzyme at pH 4.5 at 37° C. for 3 hours. Of course it should be understood that these are merely exemplary assay conditions, and those of skill in the art will be able to vary these conditions and yet still provide appropriate Hu-Asp2 activity. For example, it is envisioned that the assays may be conducted at a pH range of from between about 4.0 to about 7.0. The amount of enzyme added to a given reaction mixture may also be varied and those of skill in the art will be able to perform assays defining the optimal enzyme concentrations necessary for a given assay, as such 150 nm; 200 nm; 250 nm; 300 nm or more or less enzyme may be added. Substrate concentration in those also may be varied such that an assay may use 100, 150 μM, 200 μM, 250 μM, 300 μM, 350 μM or more or less of any given; substrate. It may be that one substrate produces an optimum activity at one concentration whereas another substrate is needed to be present at a different concentration to produce an optimum cleavage rate. However, such optimizations of enzyme assay conditions is well within the skill of those in the art and will not require undue experimentation.
In an exemplary assay to determine the cleavage of the substrates of the present invention, Asp2 was prepared from High Five™ insect cells. Generally, the assasy are run in solution at acidic pH (4.0 to 5.0), at 25-37° C. in the presence of nM or sub-nanomolar enzyme. After a suitable period of incubation the reaction is stopped at a desired time by addition of 4% trifluoracetic acid (TFA). Substrates and products are separated using reverse phase HPLC. The disappearance of the substrates and the appearance of the products are monitored by continuous measurement of the absorbance of the effluent at […]. Furthermore, if the peptide comprises a tryptophan residue, the monitoring may additionally or alternatively involve continuous monitoring of fluorescence of tryptophan fluorescence (excitation at 280 nm, emission at […]) of the effluent.
In a typical assay, 210 nM enzyme and 200 μM substrate were incubated in 0.2 M sodium acetate at pH 4.5 in 100 μl volume at 37° C. for 1 to 3 hours. The assay was stopped by the addition of 50 μl 4% TFA to lower the pH below the active range of the enzyme. Subsequently, 100 μl of this mixture was injected into a Hewlett Packard Model 1090 HPLC equipped with a Vydac column (4.6 mm i.d.×150 mm, 5 μm) pre-equilibrated with 95% A (0.15% TFA in water), 5% B (0.15% TFA in acetonitrile). The constituents were then eluted from the column with the following linear gradients: 0-15 min: 5-50% B; 15-17 min: 50-100% B; 17-20 min: 100-5% B; 20-22 min: 5% B). The cleavage products were then quantitated using an enhanced integrator. […]

[2] = target: T1, Hu-Asp2; assay: as above; format: biochemical
[3] = tested on: HEK-293 cells; assay: ELISA of secreted Aβ40 and Aβ42 in medium of transfected HEK-293 cells; format: cell-based, human; details: medium of the transfected HEK-293 cells
Procedure: As one indicator of APP processing, levels of secreted Aβ from the medium of the transfected HEK-293 cells were measured. Measurements were by ELISA using antibody 6E10 (Syntek, St. Louis, Mo.) to capture Aβ and antibody 208 for Aβ40 and antibody 165 for Ap42. […] Using additional constructs in peptide activity assays, it was determined that if an Asn residue was substituted in place of a Ser to give SEVNY-↓-EVEFR (SEQ ID NO:170), this peptide has an activity that is only ⅕ than that of SEVSY-↓-EVEFR (SEQ ID NO:141; Table 4). This observation reaffirms that amino acid optimization at a certain position depends on the rest of the substrate sequence.

[4] = target: T2, Hu-Asp (Homo sapiens, UniProt P56817); assay: Hu-Asp cleavage assay variation for substrates of SEQ ID NO:190 and 191 (Vmax, Km, pH, ionic strength, DMSO); format: biochemical; design: made in house; host or cells: High Five insect cells; details: 100 mM NaOAc/HOAc, pH 4.5 (stated for SEQ ID NO:190 and 191)
T2 sequence (P56817 46-501): as above
Procedure: In the substrates SEISY-EVEFRWKK (SEQ ID NO:190) and GLTNIKTEEISEISY-EVEFRWKK (SEQ ID NO:191), the 10 N-terminal amino acids of peptide SEISY-EVEFRWKK (SEQ ID NO:190) are identical to those of peptide SEISY-EVEFR (SEQ ID NO:152). The difference between the two peptide is the presence of a tryptophan and two lysines in the peptide of SEQ ID NO:190. […] Hu-Asp activity was tested towards SEISY-EVEFRWKK (SEQ ID NO:190) and GLTNIKTEEISEISY-EVEFRWKK (SEQ ID NO:191). […] The activity difference between the two peptides was particularly dramatic in the pH range 4.0-4.6. Specifically, it was 6.3-4.8 times higher for the peptide of SEQ ID NO:191. […] Both peptides were inhibited by increasing concentrations of DMSO. […] As expected, the N-terminus elongation increases activity. […] The development of the substrates of SEQ ID NO:190 and SEQ ID NO:191 is of great value in Hu-Asp inhibition studies and in studies concerning recombinant Hu-Asp refolding from E. coli inclusion bodies.
In a variation of the above assay for substrates of SEQ ID NO:190 or its N-terminally extended version depicted in SEQ ID NO:191), the substrates are incubated with the enzyme to a final reaction solution volume of 200 μl (although reaction mixtures of 50-100 μl also were used) composed of 5-50 μM peptide substrate, 1-10 nM enzyme, 0.1. M sodium acetate buffer at pH 4 to 5. […]

[5] = Solubility of peptide substrate; format: physicochemical; details: effect of the addition of two lysines
[6] = target: T2, Hu-Asp; assay: Inhibition of HuAsp enzyme activity by statine-containing peptide; format: biochemical

- activity compared with Swedish mutant peptide (SEQ ID NO:19) ([2]; Table 4): 1.4 fold
- Relative rate of Cleavage ([2]; Table 4, 200 nM enzyme, 200 μM substrate, pH 4.5, 37° C., 1 hr, SEQ ID NO:19 = 100): 141.8
- Cleavage Activity ([2]; Table 5, 2 nM enzyme, 50 μM substrate, 25 mM Sodium acetate, pH 4.4, 37° C., 2 hr): 0.16 µmol/min/mg
- Relative rate of Cleavage ([2]; Table 5, 2 nM enzyme, 50 μM substrate, 25 mM Sodium acetate, pH 4.4, 37° C., 2 hr, SEQ ID NO:141 = 100): 100
Substance: SEVSY-↓-EVEFR (SEVSYEVEFR)
- activity as substrate of Hu-Asp2 (in words) [1]: activity superior to the Swedish mutation
- production of secreted Aβ40 and Aβ42 [3]: easily measurable levels of Aβ

- Km [4]: 86.7 µM
- solubility [5]: increased solubility
Substance: SEISYEVEFRWKK [SEQ ID NO:190, SEISY-EVEFRWKK]

- inhibition of HuAsp enzyme activity [6]: shown to inhibit HuAsp enzyme activity
Substance: SEVN[Sta]VAEFRGGC [statine-containing peptide]
